Measured values: US20210292422A1 (SURROZEN, published 2021)

Key:
[1] = target: T1, LRP6e1e2 (UniProt O75581 20-630); experiment: column 'Specificity (Clone name)' of the component table; method not given there
T1 construct: domain: e1e2; also called LRP6 E1E2 domains
T1 sequence (looked up): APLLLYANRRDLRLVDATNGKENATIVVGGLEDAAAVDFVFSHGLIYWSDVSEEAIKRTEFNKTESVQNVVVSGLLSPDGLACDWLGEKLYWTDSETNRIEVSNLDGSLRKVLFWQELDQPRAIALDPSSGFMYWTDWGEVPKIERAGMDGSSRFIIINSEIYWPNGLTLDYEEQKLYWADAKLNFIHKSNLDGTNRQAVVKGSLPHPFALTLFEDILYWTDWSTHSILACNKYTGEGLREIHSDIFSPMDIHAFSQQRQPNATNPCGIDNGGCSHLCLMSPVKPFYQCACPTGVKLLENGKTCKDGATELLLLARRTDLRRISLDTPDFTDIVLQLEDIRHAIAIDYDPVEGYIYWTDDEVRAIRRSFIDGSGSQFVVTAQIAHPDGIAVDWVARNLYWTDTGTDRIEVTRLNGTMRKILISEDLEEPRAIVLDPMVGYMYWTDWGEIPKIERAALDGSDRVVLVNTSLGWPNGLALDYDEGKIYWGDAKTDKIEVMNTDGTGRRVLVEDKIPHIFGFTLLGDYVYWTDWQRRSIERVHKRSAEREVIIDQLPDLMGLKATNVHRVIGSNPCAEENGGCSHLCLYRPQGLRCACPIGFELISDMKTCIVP

[2] = target: T2, LRP6e3e4 (UniProt O75581 631-1246); experiment: as above
T2 construct: domain: e3e4; also called LRP6 E3E4 domain
T2 sequence (looked up): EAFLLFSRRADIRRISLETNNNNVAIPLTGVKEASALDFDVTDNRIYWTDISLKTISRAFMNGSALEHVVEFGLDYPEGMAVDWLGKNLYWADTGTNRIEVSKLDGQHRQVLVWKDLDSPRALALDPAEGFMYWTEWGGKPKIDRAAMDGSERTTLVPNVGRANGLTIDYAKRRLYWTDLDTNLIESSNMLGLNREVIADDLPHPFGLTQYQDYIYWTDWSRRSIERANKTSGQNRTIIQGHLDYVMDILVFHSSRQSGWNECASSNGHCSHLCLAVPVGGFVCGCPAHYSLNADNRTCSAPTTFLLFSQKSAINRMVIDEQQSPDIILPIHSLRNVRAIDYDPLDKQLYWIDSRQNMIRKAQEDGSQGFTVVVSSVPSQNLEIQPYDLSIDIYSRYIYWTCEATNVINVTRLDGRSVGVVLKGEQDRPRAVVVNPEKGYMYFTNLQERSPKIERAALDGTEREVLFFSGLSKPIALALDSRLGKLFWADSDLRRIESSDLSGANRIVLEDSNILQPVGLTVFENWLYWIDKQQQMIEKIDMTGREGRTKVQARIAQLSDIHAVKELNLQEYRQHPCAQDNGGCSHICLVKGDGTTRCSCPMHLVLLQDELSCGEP

[3] = target: Frizzled 7 (Fzd7) (UniProt O75084 44-163); experiment: BLI (Octet), FIG. 15A
[4] = target: Fzd7 CRD (UniProt O75084 44-163); experiment: BLI (Octet Red 96), biotinylated Fzd7 CRD on SA biosensor
Procedure: Following capture of biotinylated-Fzd7, the SA biosensor with captured biotinylated-Fzd7 was dipped into wells containing the relevant antibodies at 7 different concentrations in running buffer plus a well with only running buffer as a reference channel. KD was determined by global fitting.

B1: L1: antiLRP6E1E2 (1115.3) scFv (scFv)
scFv: DVKLVESGGGLVKLGGSLRLSCAASGFSFSTSYMSWVRQTPEKRLELVAAINLNGGSTYYSDTVKGRFTISRDNAKNTLYLQMSSLKSEDTAFYYCASELAGYGTPFAYWGQGTLVTVSAGSAASGSSGGSSSGADIVLTQSPATLSVTPGDSVSLSCKASQSISYNLHWYQQKSHESPRLLIKYTSQSISGIPSRFSGSGSGTDFTLTINNVETEDFGMYFCQQSNSWPLTFGAGTKLEVK
B1: binds [1].

B2: L2: antiLRP6E3E4 (G211) scFv (scFv)
scFv: EVQLVESGGGLVQPGGSLRLSCAASGFTFTSYYISWVRQAPGKGLEWVAEISPYSGSTYYADSVKGRFTISADTSKNTAYLQMNSLRAEDTAVYYCALRARPPIRLHPRGSVMDYWGQGTLVTVSSGSAASGSSGGSSSGADIQMTQSPSSLSASVGDRVTITCRASQDVSTAVAWYQQKPGKAPKLLIYSASFLYSGVPSRFSGSGSGTDFTLTISSLQPEDFATYYCQQSYTTPPTFGQGTKVEIK
notes: also called YW211.31.57
B2: binds [2].

B3: F2 (R2H1) (scFv)
scFv: EVQLVESGGGLVQPGGSLRLSCAASGFNISSSYIHWVRQAPGKGLEWVAYIYSSYGSTYYADSVKGRFTISADTSKNTAYLQMNSLRAEDTAVYYCARASWYALDYWGQGTLVTVSSGSAASGSSGGSSSGADIQMTQSPSSLSASVGDRVTITCRASQSVSSAVAWYQQKPGKAPKLLIYSASSLYSGVPSRFSGSRSGTDFTLTISSLQPEDFATYYCQQYWYGVAPITFGQGTKVEIK
notes: also called antiFZD1,2,7
B3: binds [3].

B4: 1791-3 (bispecific antibody, human IgG1, kappa, L234A L235A)
light: DVQLVESGGGLVQPGGSLRLSCTSSANINSIETLGWYRQAPGKQRELIANMRGGGYMKYAGSLKGRFTMSTESAKNTMYLQMNSLKPEDTAVYYCYVKLRDDDYVYRGQGTQVTVSSGSGSGDIVMTQSPKSMSMSVGERVTLRCKASENVLNYVSWYQQKPEQSPKLLIYGASNRYTGVPDRFTGSGSATDFTLTISSVQAEDLADYHCGQSYRYPTFGAGTKLELKRTVAAPSVFIFPPSDEQLKSGTASVVCLLNNFYPREAKVQWKVDNALQSGNSQESVTEQDSKDSTYSLSSTLTLSKADYEKHKVYACEVTHQGLSSPVTKSFNRGEC
heavy: EVQPVESGGGLVQPKGSLKLSCAASGFTFNTYAMHWVRQAPGKGLEWVARIRSKSNNYAKNYDDSVKDRFTISRDDSQSMLYLQMNNLKTEDTAMYYCVRENYGGRFDYWGQGTTLTVSSASTKGPSVFPLAPSSKSTSGGTAALGCLVKDYFPEPVTVSWNSGALTSGVHTFPAVLQSSGLYSLSSVVTVPSSSLGTQTYICNVNHKPSNTKVDKKVEPKSCDKTHTCPPCPAPEAAGGPSVFLFPPKPKDTLMISRTPEVTCVVVDVSHEDPEVKFNWYVDGVEVHNAKTKPREEQYNSTYRVVSVLTVLHQDWLNGKEYKCKVSNKALGAPIEKTISKAKGQPREPQVYTLPPSREEMTKNQVSLTCLVKGFYPSDIAVEWESNGQPENNYKTTPPVLDSDGSFFLYSKLTVDKSRWQQGNVFSCSVMHEALHNHYTQKSLSLSPGK
B4: no binding [4].

B5: 1291-3 (bispecific antibody, human IgG1, kappa, L234A L235A)
light: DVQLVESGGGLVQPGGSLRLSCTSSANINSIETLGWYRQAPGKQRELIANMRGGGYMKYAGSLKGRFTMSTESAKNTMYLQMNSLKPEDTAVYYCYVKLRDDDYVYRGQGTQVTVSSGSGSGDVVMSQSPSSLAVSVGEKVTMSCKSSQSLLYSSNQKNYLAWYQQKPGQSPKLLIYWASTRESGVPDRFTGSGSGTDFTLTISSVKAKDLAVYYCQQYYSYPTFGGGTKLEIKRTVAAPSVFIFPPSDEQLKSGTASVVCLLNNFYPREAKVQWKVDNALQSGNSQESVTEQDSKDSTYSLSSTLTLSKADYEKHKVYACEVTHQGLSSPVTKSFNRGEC
heavy: EVQLVESGGGLVKPGGSLKLSCAASGFTFSSYAMSWVRQTPEKRLEWVATISDGGSYTRYPDKLKGRFTISRDNAKNNLYLQMSHLKSEDTAMYYCARVGGRRDYFDYWGQGTTLTVSSASTKGPSVFPLAPSSKSTSGGTAALGCLVKDYFPEPVTVSWNSGALTSGVHTFPAVLQSSGLYSLSSVVTVPSSSLGTQTYICNVNHKPSNTKVDKKVEPKSCDKTHTCPPCPAPEAAGGPSVFLFPPKPKDTLMISRTPEVTCVVVDVSHEDPEVKFNWYVDGVEVHNAKTKPREEQYNSTYRVVSVLTVLHQDWLNGKEYKCKVSNKALGAPIEKTISKAKGQPREPQVYTLPPSREEMTKNQVSLTCLVKGFYPSDIAVEWESNGQPENNYKTTPPVLDSDGSFFLYSKLTVDKSRWQQGNVFSCSVMHEALHNHYTQKSLSLSPGK
B5: no binding [4].
